Experiment: soluble on expression in E. coli; label from the status in PepcDB or PDB records

| Sequence | soluble on expression in E. coli |
| --- | --- |
| KKDFTWSSTVTFTANKEKIKSLIEGQDMMFNAKKGDMVFKVGEGVGSFYRYKVLGIWQYSEKETAALFGCEPGDIKLDLPSVKKDGNGYYYMNPEGERVDITAENPYGVRADYDRQVIGRNTPDWTLGFKNNFRYKDFDLSVFLYARWGQMMNYGSVIGKYSPNPDYNIPTYFTYYDKTIEADQDVLFYAIDKSKDRSAYEGYDSMYYVDGSFFKLKNVTLGYTLPGKLTKRFGISNLRVYATMTNLFTYSPNKYVKNYDPEMNGSINFPLSRDCIFGLNLTF | not soluble |
| MDEQVIKKVVEDVLKKVGIEQKEENKANRGEPVITNPGLTEFVGTALGDTIGLVIANVDASLHEKMGIDPKYRSIGIIGGRTGAGPQIMAADEAVKATNTEVVAIELPRDTKGGAGHGNLIIFGAEEVSDARRAVEVALKELRRTFGDVYVNEAGHLEFQYTARASYALQKAFGAPLGKAFGLIVGAPAAIGVLCCDTAVKAAEVEVIGYASPAKGTSMTNEAILFISGDSGAVRQAIIAAREVGLKLLSTLGEAPKSLSGEPYI | not soluble |
| MGSDKIHHHHHHMSSKPIAPLHGRTIIMTRAQEQQSEARSQLHALGSNVLDLPALVIGPPDDWQPLDDALADIKTFHWLVFSSANGVRAVEERLQRIGQSLANRPKGLKLAAVGRKTAQYLEHLGAAVDFVPPNFVADSLINHFPVSGFGLKMLLPRVQSGGRTILGEAFRESGAHVIEVAAYESRCPEAIPDDTATALANSNVDAIAFSSGKTAAHTASLLSHRFGSDWLQQLETVKVISIGPQTSLSCEQHFGRVDQEADPHNLEGLISACVKACRSEAETCPPGSR | not soluble |
| YSQVQLPFNDLLYIETSSRSHRVVLYTEKDRMEFTATLGDILKQEPRLFQCHRSFLVNPLNIFKVDRIDRLVYFQNGTTCLVSRNKVRDIVSIVDKYQKDRKR | not soluble |
| MNNSSFFGNRLKEERKKLKMTQAEIAEKCGVSGRMWGDYERGISQPKAELFFQFEKVGIDVQYVMHGRRGETAVMPSETLNAEEQELLVLFREAAAADREMILMVARRAEKKAQTALGKVSNG | not soluble |
| MIESVLLLVSGLPGSGKSTLARGMAEALAWPCLDKDDFLEALFDARGIGDAAWRRALSREADSRFLAALQAAPRAVACSWWRHPRGEGGSGTPIGGLARPGRLVLELHCRCPAELAAARFARRVRHPGHLDAQRDPGALSLQLRRAERLGPLGLGQCLILDASVQTDLSGALAWTRDALAAGALADPPRHPLEHHHHHH | not soluble |
| MADEEKVTTEEQALADEWAAALAEAGDASQDDIDALMAQGGATPVAEPSTPRAPMEEFGASPKAPTISGLEGPNLDVILDIPVTISMEVGHTDISIRNLLQLNQGSVIELDRLAGEPLDVLVNGTLIAHGEVVVVNEKFGIRLTDVISPSERIKKLR | not soluble |
| MRVDEFLKERNINVGDFVRITKEEDGEEVTYEGYIMPPYELSAGDTLVLKLENGYNIGIALEKIRRIEVLERAKVKPEVHFEALIEGKPGLPEVTIIGTGGTIASRIDYETGAVYPAFTAEELAKALPEIFEVANVKPKLLFNIFSEDMKPKHWVKIAHEVAKALNSGDYGVVVAHGTDTMGYTAAALSFMLRNLGKPVVLVGAQRSSDRPSSDAAMNLICSVRMATSEVAEVMVVMHGETGDTYCLAHRGTKVRKMHTSRRDAFRSINDVPIAKIWPNGEIEFLRKDYRKRSDEEVEVDDKIEEKVALVKVYPGISSEIIDFLVDKGYKGIVIEGTGLGHTPNDIIPSIERAVEEGVAVCMTSQCIYGRVNLNVYSTGRKLLKAGVIPCEDMLPETAYVKLMWVLGHTQNLEEVRKMMLTNYAGEITPYTRFDTYLR | soluble |
| GPGSMHFPSIVFRRHGGRQWMQQQSRDPFVLEARRRGYVARSAFKLLEMDDKFTLFSRGNTRVVVDIGCSPGSWLQVIRERCGDKCAVFGVDVLRVASTVTGAVCIQGDFTNPAVREELLARMVTVRAAGVVDVVTSDMCLNRGTGSTSDRQKQEELNRSALAFALEQLVPGGNFVCKVLGSPTAYEELRRDTCRWFVRTDICKPSSSRLTSDEAFMVCRGKREIPRDRSGGCDGTYGGRFGLDDWPGQLRGSPRRRKP | not soluble |
| MGSDKIHHHHHHMEVVGRSRAKAIIETHLNDSLVYFSDHVRILKCNPYCTGVTYLKEHGVYQWIFQVNDPRENPITAVFFVTQNEEHLDSSRTVPAGPVSEEESFPDSAVSGRCIQWVNAPQVPDVPLKEKNTFVGQANTRICLYPLEDRRTEVHFETDITLDFELSFPLNLMPEGILKFMTEAVMSKIMQQATESMLCQVQSDLCCCTTAELDASGGKV | not soluble |
| MIYIGFYPKFNISGFSIGINTGVRFDVSSKLHYETSSASENINNEVKPRTYIRGTFDYSVFFKDNMAINVGLYIGYDWGFAWSDTYANADVVKNESFGNLDLGIQVGYRFGPKF | not soluble |
| EMVKLQSVITGSMQTGRSRARIEQAVVALLTYVEEETDAFQILVRDMKAGQDHSYSTLLNDAVEQVSHILGQAFERSGLNPKNATLYAQALVGMVSMTAQWWLDRRKEPNAATKEQVAAHIVNLCWNGLAGMEANPQLSNIDSPPETLGAH | not soluble |
| MKPRQRQAAILEYLQKQGKCSVEELAQYFDTTGTTIRKDLVILEHAGTVIRTYGGVVLNKEESDPPIDHKTLINTHKKELIAEAAVSFIHDGDSIILDAGSTVLQIVPLLSRFNNITVMTNSLHIVNALSELDNEQTILMPGGTFRKKSASFHGQLAENAFEHFTFDKLFMGTDGIDLNAGVTTFNEVYTVSKAMCNAAREVILMADSSKFGRKSPNVVCSLESVDKLITDAGIDPAFRQALEEKGIDVIITGESNELEHHHHHH | soluble |
| MGSDKIHHHHHHAVDAKLLEMLRANGSINQAQYNELQGDLAKETKEKADQKAQSERMSSFEQKVAWAAKTQIKGDVRLRYEDVNVDDPNSSSGNQDRQRVRARVGFYSEINPQVDAGVRIATGSSADRRSTNQSFDNYFDKKSLWVDLAYLDWHPTAVPNLHLIGGKMQQPWVSMGDIIWDSDINPEGVAATYKADLGGAEVFASAGQYTLKDNVDGDGVQYKHDAQVYHGQLGAKFAPADVLKLTVGASIYGYDNDKEAAILQSFGNTTNEFNLVEGFGQIDFTGLAIPLSAYGQYVKNTDSTDGEDQAWLAGLKTKMGAWSLDYNYRDVQRNAVVSLFTDSDFGNGYTGSRGHKFKVGYEIDKNFSLGAAYLMAKTDLSQLPNSNADVDTLQVDLEAKF | not soluble |
| IKVQIEKQLSERILLIDGGMGTMIQGYKFEEEDYRGERFNKWHCDLKGNNDLLVLSQPQIIRDIHEAYLEAGADILETNTFNATTIAMADYDMESLSEEINFEAAKLAREVADKWTEKTPNKPRYVAGVLGPTNRTCSISPDVNDPGFRNVSFDELVEAYSESTRALIRGGSDLILIETIFDTLNAKACSFAVESVFEELDITLPVMISGTITDASGRTLSGQTTEAFYNALRHVKPISFGLNCALGPDELREYVSDLSRISECYVSAHPNAGLPNAFGEYDLSPEDMAEHVAEWASSGFLNLIGGCCGTTPEHIRQMALVVEGVKPRQLPELPVACRLSGLEPLTIEKDSLFINVGERTNVTGSARF | not soluble |
| MQNIPPQVQAMLGQLDTYQQQLQLVIQQKQKVQADLNEAKKALEEIETLPDDAQIYKTVGTLIVKTTKEKAVQELKEKIETLEVRLNALNRQEQKINEKVKELTQKIQAALRPPTAG | soluble |
| MLGVVPGIGESIQAYKVAKAAKNLQGMKKALDKAATVATAQGYVSKTKIKIGQTELRVTAATDKQLLKAIGEGRTRQVK | not soluble |
| SSQPDPTPEQLNKSSQFTGVMGNLRCLYDNHFVEGTNVRSTGQLLQHDLIFPIKDLKLKNYDSVKTEFNSKDLATKYKNKDVDIFGSNYYYNCYYSEGNSCKNAKKTCMYGGVTEHHRNQIEGKFPNITVKVYEDNENILSFDITTNKKQVTVQELDCKTRKILVSRKNLYEFNNSPYETGYIKFIESSGDSFWYDMMPAPGAIFDQSKYLMLYNDNKTVSSSAIAIEVHLTKK | soluble |
| MGSDKIHHHHHHALGVVDEVHAGKEIGLQIYSLSQELYKGDVAANLRKVKDMGYSKLELAGYGKGAIGGVPMMDFKKMAEDAGLKIISSHVNPVDTSISDPFKAMIFKYSKEVTPKIMEYWKATAADHAKLGCKYLIQPMMPTITTHDEAKLVCDIFNQASDVIKAEGIATGFGYHNHNMEFNRVATKEQQEKVKGNPFAAFMKVGDQIYDLMLKDTDPSKVYFEMDVYWTVMGQNDPVEYMQKHPDRIKVLHIKDRAVFGQSGMMNFEMIFKQMYANGIKDYFVELEQMPDGRTQFAGVKDCADYLIKAPFVK | not soluble |
| GPSLSGELHIFCSVTAAYSHLPPILDRFRAEHPSVEIKLTTGDAADAMEKVVTGEADLAIAGKPETLPGAVAFSMLENLAVVLIAPALPCPVRNQVSADKPDWSTVPFIMADQGPVRRRIELWFRRNKISNPMIYATVGGHEAMV | not soluble |
| VREVCSEQAETGPCRAMISRWYFDVTEGKCAPFFYGGCGGNRNNFDTEEYCMAVCGSA | soluble |
| MAHHHHHHSLALIVKIGGSIQKDEKDYELIVKKIQDFSKKSDKIIVVTSAIKNVTNELISATSNTDNSPNIVTEIYERHIKLLSKLADGKEFENSFKDISRLSDELFRVAWSIRVLDEVTPRVRDYILSFGERMATLLLSAILRSNGIEAEGIITPPFLTDENYGEANVIEDLSKNEIANILENAKANVIVLPGFIGRTREGRYTTLGRGGSDYTATLLGKLVGVREVRLVTEVPGIMTGDPKKFENAKTISRLSLEEAIELSQLGAKRLHPRTFDPVFGSDMKVIVESLYEDGFTIINGECQNNDGLKGISLLDNAKLITVESTKIVGKIGSAARITNEAKEAGVNIISISQPASETTIQLVVDSLSANRLLSKLEEIRGTLVKDIEVNDINIVGIVGCGIKKKEISTKVLSIASSYDPLAISRGISNVSMTFIVNKDEGEKLAKELHKVIVSGEG | soluble |
| MITQSSLLTYPLAGCLNRLANKSSQVKQRLQTHANETVCFRIDSLASLSVTITQDGHFTTAAKDTQAAVILDIAAELIPRIASGEMAAFDKIIICGDPELADTLLYMGKIFQAGIEENLSSVMGDVLARRATLTGQELVRWHLGSIRNLSRALGEFLSEEQPVTASRNRFHQLASEVESLQRRILRLEKRITALVPSFSSIAGNLPRTGR | not soluble |
| MHATDQTFQILLSQLLEKVEDRCPECGSEQYVWQQKNKDGTERCAPTCWSCGYKMLKKHEQQANQQRSQESFMARTQKFFHQGSLIADDALRQCRLTNYQTTELETRQAKERALAAVSAIVEGKPIHVIFSGKPGVGKSHLAISILVEVLERSAYQKYCLFVSYSELLEKLKMSMNESAKSQAKAQAYITRMKKADVLVLDDLGAELGIKNKVSTDFNNDILNRILEARQNKATIFTTNFSGKQLVEAYGTRIISRLMKHANGYVFQYKDTTDKRMRSVKLEHHHHHH | not soluble |
| MSRDTERYPVKHANSLWQIYKTVPFWKVVKNFVVIQLARYTPFVSVKNWLYRTFLKMDVGEKTAFALMVMPDIMFPERISVGRNSIIGYNTTILAHEYLIEEYRLGDVIIGDEVMVGANTTILPGVTIGDRAIIAAGTVVHKNVPPGAFVGGNPMQVIKQLEHHHHHH | not soluble |

From the DeepSol protein solubility set
